Results on 41 sequences are retold here after the nanobody polyreactivity screen of Harvey et al. (2022).

The series in a line: yeast display, Sf9 membrane polyspecificity reagent, FACS + sequencing; frameworks hold sequencing errors. Summed up: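 Nanobodies from a synthetic yeast display library (Saccharomyces cerevisiae BJ5465), induced 36–48 hours with galactose, were stained 1 hour at 4 °C with 10% biotinylated, detergent-solubilized Sf9 membrane reagent, enriched on streptavidin microbeads, then FACS-sorted. Anti-HA (expression) and streptavidin (reagent binding) fluorescence set low and high (top ~1%) gates. Polyreactivity labels come from the gate of origin. Genes were colony-PCR amplified, MiSeq 2 × 250 sequenced and filtered by CDR length.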
For “QVQLVESGGGLVQAGGSLRLSCAASGYNLSVNAMGWYRQAPGKERELVATIDIAGGSTYYADSVNGRFTISRDNAKNTVYLQMNSMKPVDTAVYYCNTEWNSLSKSSLGGRYDHWGQCTQVTVSS”, the “polyreactivity (PSR sort gate)” value is “low polyreactivity”. Consider “QVQLVESGGGLVQAGGSLRLSCAASGYTAYTYTMGWYRQAPGKVREWVAAMSRRSDSTYADSVKGRFTISRDNAKNTVYLQMNSLKPEDTADYYCAAVRVSYRSLSKSYYWGQGTQVTVSS”, for which the “polyreactivity (PSR sort gate)” value is reported as “high polyreactivity”. Under “QVQLVESGGGLVQAGGSLRLSCAASGYTFALYAMGWYRQAPGKERELVAAITWNGGSTYYADSVKGRFTISRDNAKNTVYLQMNSLKPEDTSVYYCNVESSQSSSGFDYWGQGTQVTVSL” stands “low polyreactivity”. Under “QVQLVESGGGLVQAGGSLRLSCAASGYTFARNAMGWYRQAPGKERELVADINWSGTNTYYADSVKGRFTISRDNAKNTVYLQMNSLKPEDTAVDYCAKDLYFSGYEFDYWGQGTQVTVSS” stands “low polyreactivity”; under “QVQLVESGGGLVQAGGSLRLSCAASGYTFASNAMGWYRPAPGKERELVAAITRGGSTNYADSVKGRFTISRDNAKNTVYLQMNSLKPEDTAVYYFAAPRYRHTRKGGYWGQGTQVTVSS”, “low polyreactivity”. Under “QVQLVESGGGLVQAGGSLRLSCAASGYTFAVYAMGWYRQAPGKERELVAAISSDGSTNYADSVKGRFTISRDNAKNTVYFQMNSLKPEDTSVYYCAKVYKDLAGPFYDYWGQGTQVTVSS” stands “low polyreactivity”; under “QVQLVESGGGLVQAGGSLRLSCAASGYTFAWYAMGWYRQAPGKERELVAAINNGGSTSYADSVKGRFTISRDNAKNTVYLQMNSLKPEDTAVYYCNADHYGGPHWMDYWGQGTQVTVSS”, “low polyreactivity”; under “QVQLVESGGGLVQAGGSLRLSCAASGYTFAWYAMGWYRQAPGKERELVAAITVSGGSTYYADSVKGRFTISRDNAKNTVYLQMNSLKPEDTAVYYCAAVGKSPSRFGYWGQGTQVTVSS”, “low polyreactivity”. For “QVQLVESGGGLVQAGGSLRLSCAASGYTFDGYAMGWYRQAPGKERELVAAINSGGGTYYADSVKGRFTISRDNAKNTVYLQMNSLKPEDTAVYYCAKYTYDYWGQGTQVTVSS”, the “polyreactivity (PSR sort gate)” value was “low polyreactivity”.

With “QVQLVESGGGLVQAGGSLRLSCAASGYTFDWYTMGWYRQAPGKERELVAAISASGVRTYYADSVKGRFTISRDNAKNTVYLQMNSLKPEDTAVYYCNRVYSTSRITQYEFDYWGQGTQVTVSS”, the “polyreactivity (PSR sort gate)” value is “low polyreactivity”. Under “QVQLVESGGGLVQAGGSLRLSCAASGYTFEPYAMGWYRQAPGKESELVAAISRGGTTNYADSVKGRFTISRDNAKNTVYLQINSLKPEDTAVYYCASSYFRRVFYSIYEYDYWGQGTQVTVSS” stands “low polyreactivity”; under “QVQLVESGGGLVQAGGSLRLSCAASGYTFEYYAMGWYRQAPGKERELVAAISWSGGDTYYADSVKGRFTISRDNAKNTVYLQMNSLNPEDTAVYYCAAVRYYRRRTGSYYHYDYWGQGTQVTVSS”, “low polyreactivity”. Under “QVQLVESGGGLVQAGGSLRLSCAASGYTFFKNAMGWYRQAPGKERELVAAISYSGGRTYYADSVKGRFTISRDNAKNTVYLQMNSLKPEDTAVYYCAKATRVITDDGSYGYWGQGTQVTVSS” stands “high polyreactivity”; under “QVQLVESGGGLVQAGGSLRLSCAASGYTFFYAMGWYRQAPGKERQLVAGISRAGRTKYADSVKGRFTISRDNAKNTVYLQMNSLKPEDTAVYYCAAYARVSSSRFDYWGQGTQVTVSS”, “high polyreactivity”; under “QVQLVESGGGLVQAGGSLRLSCAASGYTFFYYAMGWYRQAPGKERELVATISGNGGRTYYADSVKGRFTISRDNAKKTVYLQMNSLKPEDTAVYYCAALLYIRSVGYDYWGQGTQVTVSS”, “low polyreactivity”. Under “QVQLVESGGGLVQAGGSLRLSCAASGYTFGEYAMGWYRQAPGKERELVATISLSDGSTNYADSVKGRFTISRDNAKNTVYLQMNSLKPEDTAVYYCATTVWYKKAPYPDGDYWGQGTQVTVSS” stands “low polyreactivity”.

For “QVQLVESGGGLVQAGGSLRLSCAASGYTFGHYAMGWYRQAPGKERELVAVNTSGGSTNYADSVKGRFTISRDNAKNTVYLQMNSLKPEDTAVYDCAADLYFYYVWIRDYWGQGTQVTVSS”, the “polyreactivity (PSR sort gate)” value is given as “low polyreactivity”. Then “QVQLVESGGGLVQAGGSLRLSCAASGYTFGIYTLGWYRQAPGKERELVADISSTGTTKYADSVKGRFTISRDNAKYTVYLQMNSLKPEDTAVYYCAVRPFWYRMDYWGQGTQVTVSS”, with “low polyreactivity”; and “QVQLVESGGGLVQAGGSLRLSCAASGYTFGSYAMGWYRQAPGKERELVAAIRGSGGSTYYADSVKGRFTISRDNAKNTVYLQMNSLKPEDTAVYYCATSVRRGGRQLYNYWGQGTQVTVSS”, with “high polyreactivity”. Then “QVQLVESGGGLVQAGGSLRLSCAASGYTFGSYAMGWYRQAPGKERELVAAISGGGSTNYADSVKGRFTISRDNAKNTVYLQMNSLKPEDTAVYYCAAYPYLYPLRFEEYDHWGQGTQVTVSS”, with “low polyreactivity”; and “QVQLVESGGGLVQAGGSLRLSCAASGYTFGTYAMGWYRQAPGKERELVAAITWRGGSTYYADSVKGRFTISRDNAKYTFYLQMNSLIPEDTAVYYCNADIKQRSDRYDYWGQGTQVTVSS”, with “high polyreactivity”; and “QVQLVESGGGLVQAGGSLRLSCAASGYTFGTYDMGWYRQAPGKERELVAAISIGGSTNYADSVKGRFTISRDNAKNTVYLQMNSLKREDTAVYYCAAEVNVGTLLLSVIVEDGDYWGQGTQVTVSS”, with “low polyreactivity”. Then “QVQLVESGGGLVQAGGSLRLSCAASGYTFGTYDMGWYRQAPGKERELVAAISIGGSTNYADSVKGRFTISRDNEKNTVYLQMNSLKPVDTAVYYCAAEVNVGTLLLSVIVEDGDYWGQGTQVTVSS”, with “low polyreactivity”; and “QVQLVESGGGLVQAGGSLRLSCAASGYTFGVYVMGWYRQAPGKERELVAAISGSTYYAYSVKGRFTISRDNAKNTVYLQMNSLKPEDTAVYYCAAESYFFSPRTREKFDYWGQGTQVTVSS”, with “low polyreactivity”; and “QVQLVESGGGLVQAGGSLRLSCAASGYTFGYYTMGWYRQAPGKERELVASIDSGGGTNYADSVKGRFTISRDNAKNTVYLQMNSLKPEDTEVYYCAAEYPLYWVDDFESGWRYYYWGQGTQVTVSS”, with “low polyreactivity”. For “QVQLVESGGGLVQAGGSLRLSCAASGYTFIYYAMGWYRQAPGKERELVATISIDGSTNYADSVKGRFTISRDNAKYSVYLQMNSLKREDTAVYYCNRERYEDYDYWGQGTQVTVSS”, the “polyreactivity (PSR sort gate)” value is recorded as “high polyreactivity”. Under “QVQLVESGGGLVQAGGSLRLSCAASGYTFKTYAMGWYIQAPGKERELVAAISGSGGSTYYADSVKGRFTISRDNAKNTVYLQMNSLKPEDTEVYFCAATNWWGTEYDYWGQGTQVTVSS” stands “high polyreactivity”; under “QVQLVESGGGLVQAGGSLRLSCAASGYTFLANAMGWYRQAPGKERELVAAISSGGTTYYADSVKGRFTISRDNAKNTVYLQMNSLKPEDTAVYYCAAKDTTVFYYDDDYWGQGTQVTVSS”, “low polyreactivity”. Then “QVQLVESGGGLVQAGGSLRLSCAASGYTFLAYAMGWYRQAPGKERELVAAISSGGRTYYADSVKGRFTISRDNAKNTVYLQMHSLKREDTAVYYCAAYPLRYRQYWGFVYWGQGTQVTVSS”, with “high polyreactivity”.

In the case of “QVQLVESGGGLVQAGGSLRLSCAASGYTFLDYAMGWYRQAPGKERELVAAINSGGSTYYADSEKGRFTISRDNAKNTVYLQMNSLKPEDTAVYYCAVDPPYSYSLSRYGYWGQGTQVTVSS”, the “polyreactivity (PSR sort gate)” value is listed as “low polyreactivity”. Under “QVQLVESGGGLVQAGGSLRLSCAASGYTFNKYAMGWYRQATGKGRELVATIRNGGNTYYADSVKGRFTISRDNAKITVYFQMNSLKPEDTAVYYCAATVRGVGYRYYYWGQGTQVTVSS” stands “high polyreactivity”; under “QVQLVESGGGLVQAGGSLRLSCAASGYTFPDYAMGWYRQAPGKERELVAAFRSGGGTNYADSVKGRFTISRDNAKNTVYLQMNSLKPEDTAVYYCAKEWAGGLYDYWGQGTQVTVSS”, “low polyreactivity”. Then “QVQLVESGGGLVQAGGSLRLSCAASGYTFPFYTMGWYRQAPGKERELVAAINSGGSTYYADSVKGRFTISRDNAKNTVYLQMNSLKPEDTAVYYCGAGRHSEDNYWGQGTQVTVSS”, with “high polyreactivity”; and “QVQLVESGGGLVQAGGSLRLSCAASGYTFPRYTMGWYRQAPGKERELVAAINWSGGSTYYADSVKGRFTISRDNAKNTVYLQMNSLKPEDTAVYYCNKAYVSRYDYWGQGTQVTVSS”, with “high polyreactivity”; and “QVQLVESGGGLVQAGGSLRLSCAASGYTFPTYAMGWYRQAPGKERELVAAISIDDGITYYADSVKGRFTISRDNAKNTVYLQMNSLKPEDTAVYYCAADVGIEYDYWGQGTQVTVSS”, with “high polyreactivity”. Under “QVQLVESGGGLVQAGGSLRLSCAASGYTFQWYDMGWYRQAPGKERELVASISWRGGSTYYADSVKGRFSISRDNATITVSLQMNSLKPEDTAVYYCAASLWPDYEYDYWGQGTQVTVSS” stands “low polyreactivity”. Turning to “QVQLVESGGGLVQAGGSLRLSCAASGYTFRFNAMGWYRQAPGKEREFVAAIDFGGAGTYYADSVKGRFTISRDNAKNNVYLQMHSLKPEDTAVYYCNARDGVTSEFDYWGQGTQVTVSS”, the “polyreactivity (PSR sort gate)” value is on record as “low polyreactivity”. Then “QVQLVESGGGLVQAGGSLRLSCAASGYTFRRYAMGWYRQAPGKERELVAAITSRGGSTYYADSVKGRFTISRDNAKNTVYLQMNSLKPEDTAVYYCAADASAYSVLTRDYWGQGTQVTVSS”, with “high polyreactivity”; and “QVQLVESGGGLVQAGGSLRLSCAASGYTFRRYAMGWYRQAPGKERELVAGITRTGNTNYADSVKGRFTISRDNAKNTVYLQMNSLKPEDTAVYYCARDLGGYKRLYDYWGQGTQVTVSS”, with “high polyreactivity”; and “QVQLVESGGGLVQAGGSLRLSCAASGYTFRSNTMGWYRQAPGKERELVAAISGRGSSTYYADSVKGRFTISRDNAKNTVYLQMNSLKPEDTAVYYCAAQSKYYQYYSWGQGNQVTVSS”, with “high polyreactivity”.

Regarding “QVQLVESGGGLVQAGGSLRLSCAASGYTFRSYAMGWYRQAPGKERELVAGIDGSGGTTYYADSVKGRFTISRDNAKNTVYLQMNSLKPEDTAVYYCAAEAYKHGVWDYDYWGQGTQATVSS”, the “polyreactivity (PSR sort gate)” value was “low polyreactivity”.
